How the values were obtained:
[1] = target: Interferon-gamma, intracellular (Homo sapiens, UniProt P01579 24-161); assay: flow cytometry of fixed permeabilized cells; 0.05 pM aptamer; no correlation with stimulated cells; PBS binding buffer (SELEX with 0.1 mg/mL salmon sperm DNA and 1 mg/mL BSA, 37 °C); Kd assay on beads in binding buffer, room temperature, 30 min; pH not stated; conditions: protein: native; chain copies: 2
Interferon-gamma (IFN-γ) [2] = target: T1, Interferon-gamma (IFN-γ) (Homo sapiens, UniProt P01579 24-161); assay: flow cytometry bead binding; PBS binding buffer (SELEX with 0.1 mg/mL salmon sperm DNA and 1 mg/mL BSA, 37 °C); Kd assay on beads in binding buffer, room temperature, 30 min; pH not stated; conditions: protein: commercial; chain copies: 2; label: FITC
[3] = target: Bovine serum albumin (BSA) (Bos taurus, UniProt P02769 25-607); assay: flow cytometry bead binding; bound albumin to a large degree; PBS binding buffer (SELEX with 0.1 mg/mL salmon sperm DNA and 1 mg/mL BSA, 37 °C); Kd assay on beads in binding buffer, room temperature, 30 min; pH not stated; conditions: protein: commercial; label: FITC
Interferon-gamma (IFN-γ) [4] = target: T1, Interferon-gamma (IFN-γ); assay: flow cytometry bead binding; binding buffer (PBS), room temperature, blank-bead signal subtracted; PBS binding buffer (SELEX with 0.1 mg/mL salmon sperm DNA and 1 mg/mL BSA, 37 °C); Kd assay on beads in binding buffer, room temperature, 30 min; pH not stated; conditions: protein: commercial; chain copies: 2; label: FITC

T1 sequence (P01579 24-161): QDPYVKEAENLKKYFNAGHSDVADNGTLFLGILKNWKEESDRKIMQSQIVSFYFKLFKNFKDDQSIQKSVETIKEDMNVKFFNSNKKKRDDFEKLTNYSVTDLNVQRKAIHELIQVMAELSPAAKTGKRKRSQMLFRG
Sequence of Bovine serum albumin (BSA) (P02769 25-607): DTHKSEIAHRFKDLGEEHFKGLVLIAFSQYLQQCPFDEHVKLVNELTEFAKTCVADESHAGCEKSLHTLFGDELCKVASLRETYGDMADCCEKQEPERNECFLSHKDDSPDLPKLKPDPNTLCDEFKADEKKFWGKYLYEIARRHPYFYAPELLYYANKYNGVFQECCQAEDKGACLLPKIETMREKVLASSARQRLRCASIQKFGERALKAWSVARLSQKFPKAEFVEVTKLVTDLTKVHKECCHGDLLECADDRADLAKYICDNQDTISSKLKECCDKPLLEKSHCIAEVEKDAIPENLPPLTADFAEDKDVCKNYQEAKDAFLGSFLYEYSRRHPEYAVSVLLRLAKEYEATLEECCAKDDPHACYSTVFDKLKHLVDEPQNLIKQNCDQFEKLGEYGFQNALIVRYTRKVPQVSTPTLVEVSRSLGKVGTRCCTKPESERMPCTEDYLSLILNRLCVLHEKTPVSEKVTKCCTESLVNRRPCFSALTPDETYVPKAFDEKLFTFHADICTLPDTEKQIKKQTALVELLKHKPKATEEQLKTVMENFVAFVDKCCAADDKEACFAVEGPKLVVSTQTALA
Sequence of Interferon-gamma, intracellular (P01579 24-161): as the sequence (P01579 24-161) above

B1: A2 (ssDNA)
DNA: TGCCCGTGTCCCGAGGAGGTGCCCTATTTTGCTTGATTATCTCTAAGGGATTTGGGCGG
binding result [1]: no binding

GGGGTTGGTTGTGTTGGGTGTTGTGT (ssDNA) [T2]
binding result (Interferon-gamma (IFN-γ) [2]): binds
binding result [3]: binds

B2: B1-4 (ssDNA)
DNA: CCGCCCAAATCCCTAAGAGAAGACTGTAATGACATCAAACCAGACACACTACACACGCA
Kd (Interferon-gamma (IFN-γ) [4]): 74.5 nM

Source: paper PMC4029989, “Selection of a Novel DNA Aptamer for Assay of Intracellular Interferon-Gamma”
